Laboratory results published in PMC11546984.

Legend:
Crovalimab (human) [1] = assay: SPR; Biacore T200, 37 °C, pH 5.8; antibodies captured by goat anti-human IgG (Fc) on a CM4 chip (50-80 RU); recombinant human C5 as analyte, three-fold dilutions from 135 nM; 20 mM ACES, 150 mM NaCl, 1.2 mM CaCl2, 0.05% Tween 20, 0.005% NaN3; 1:1 binding model
Crovalimab (human) [2] = assay: SPR; Biacore T200, 37 °C, pH 7.4; antibodies captured by goat anti-human IgG (Fc) on a CM4 chip (50-80 RU); recombinant human C5 as analyte, three-fold dilutions from 27 nM; 20 mM ACES, 150 mM NaCl, 1.2 mM CaCl2, 0.05% Tween 20, 0.005% NaN3; 1:1 binding model

Sequence of Crovalimab (human) (light, as listed by the source, chain 2 of 2, other chains not shown): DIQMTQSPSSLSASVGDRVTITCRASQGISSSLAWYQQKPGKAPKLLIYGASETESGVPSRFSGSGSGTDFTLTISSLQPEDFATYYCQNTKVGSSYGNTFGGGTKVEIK

Kd (Crovalimab (human) [1]): 132 nM
koff (Crovalimab (human) [1]): 0.0164 s⁻¹
kon (Crovalimab (human) [1]): 125000 M⁻¹ s⁻¹
Kd (Crovalimab (human) [2]): 0.166 nM
koff (Crovalimab (human) [2]): 0.000123 s⁻¹
kon (Crovalimab (human) [2]): 741000 M⁻¹ s⁻¹
Substance: Recombinant human C5 (natural protein)
